Substitutions are numbered along the chain they refer to.

Here are results for 2 molecules from patent US20260201389A1 (NATIONAL UNIVERSITY OF SINGAPORE, published 2026).

The target of assay [1] is T1, SMAD2 protein (mouse, UniProt Q62432 2-467).
T1 construct: Endogenous protein in cell lysates
Nature of the assay: co-immunoprecipitation with anti-SMAD2 antibody from TGFβ1-stimulated mouse WT primary cardiac fibroblasts, western blot (FIG. 16D). (In general: Immunoblotting shows a protein as a band on a membrane.)

Assay [2] deals with T1, SMAD2 protein. The assay can be described thus: co-immunoprecipitation with anti-FLAG antibody from NIH-3T3 lysates, western blot (FIG. 16C).

T1 sequence (Q62432 2-467 limits assumed): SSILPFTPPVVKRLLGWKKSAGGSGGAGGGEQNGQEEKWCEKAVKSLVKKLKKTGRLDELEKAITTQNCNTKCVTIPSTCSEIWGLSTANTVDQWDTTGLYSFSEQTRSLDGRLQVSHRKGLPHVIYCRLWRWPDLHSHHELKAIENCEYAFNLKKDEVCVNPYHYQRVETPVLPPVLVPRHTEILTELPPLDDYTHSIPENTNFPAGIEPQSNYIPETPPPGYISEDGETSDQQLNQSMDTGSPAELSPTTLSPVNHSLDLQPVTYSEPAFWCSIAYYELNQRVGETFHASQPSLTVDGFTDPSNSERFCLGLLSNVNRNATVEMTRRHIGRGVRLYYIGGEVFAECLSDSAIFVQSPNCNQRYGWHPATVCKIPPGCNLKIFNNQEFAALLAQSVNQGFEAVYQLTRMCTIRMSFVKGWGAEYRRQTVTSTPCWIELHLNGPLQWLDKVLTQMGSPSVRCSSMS

B1: WWP2-C, endogenous in mouse WT primary cardiac fibroblasts (enzyme, UniProt Q9DBH0 440-870, looked up)
chain: MIQEPALPPGWEMKYTSEGVRYFVDHNTRTTTFKDPRPGFESGTKQGSPGAYDRSFRWKYHQFRFLCHSNALPSHVKISVSRQTLFEDSFQQIMNMKPYDLRRRLYIIMRGEEGLDYGGIAREWFFLLSHEVLNPMYCLFEYAGKNNYCLQINPASSINPDHLTYFRFIGRFIAMALYHGKFIDTGFTLPFYKRMLNKRPTLKDLESIDPEFYNSIVWIKENNLEECGLELFFIQDMEILGKVTTHELKEGGENIRVTEENKEEYIMLLTDWRFTRGVEEQTKAFLDGFNEVAPLEWLRYFDEKELELMLCGMQEIDMSDWQKNAIYRHYTKSSKQIQWFWQVVKEMDNEKRIRLLQFVTGTCRLPVGGFAELIGSNGPQKFCIDRVGKETWLPRSHTCFNRLDLPPYKSYEQLKEKLLYAIEETEGFGQE
Regarding B1, in the assay with SMAD2 protein [1], the binding result was “no binding”.

B2: FLAG-tagged WWP2-C (enzyme)
chain: B1 chain with F232Y, N254S, N324S, A325T, S333N, R386K, K415R
notes: Expressed from a plasmid in NIH-3T3 mouse fibroblasts; The position of the FLAG tag is unknown; also called WWP2-Flag isoforms; C-terminal isoform; not shown: FLAG tag
In the case of B2, the binding result in the assay with SMAD2 protein [2] was “no binding”.
